Measured values as given in patent publication US10272050B2, “Nanoparticles and methods of use” (The Brigham and Women's Hospital, Inc., priority 2014, dated 2019).

B1: recombinant mouse interleukin 10 (protein, UniProt P18893 19-178, looked up)
Interleukin-10: SRGQYSREDNNCTHFPVGQSHMLLELRTAFSQVKTFFQTKDQLDNILLTDSLMQDFKGYLGCQALSEMIQFYLVEVMPQAEKHGPEIKEHLNSLGEKLKTLRMRLRRCHRFLPCENKSKAVEQVKSDFNKLQDQGVYKAMNEFDIFINCIEAYMMIKMKS
notes: recombinant mouse interleukin 10, Mw ~36 kDa, from R&D Systems
B2: released IL-10: IL-10 released from TNPs (obtained at 48 h post-release) (protein, UniProt P18893 19-178, looked up)
Interleukin-10: B1 Interleukin-10
modifications: released from nanoparticles

What was measured:
[1] = In vitro release of proteins from TNPs in PBS; assay type: physicochemical; settings: 100 rpm, 37° C.
Protocol: The protein-loaded nanoparticles were dispersed in 1 mL of phosphate-buffered saline solution (PBS) and subsequently incubated in a shaking incubator at 100 rpm and 37° C. At each time point, the protein released from nanoparticles was isolated using Amicon Ultra-0.5 centrifugal filters (MWCO 50 kDa) at 5,000 rpm for 2 min at 20° C. Then the protein-loaded nanoparticles were resuspended in PBS and incubated in the same manner until the last defined time point. The amount of released protein at each time point was measured at 450 nm using an ELISA kit. The measurements were done in triplicate.

[2] = Protein encapsulation efficiency and loading content (solvent-free loading, ELISA of unloaded protein); assay type: physicochemical; settings: loaded into TNPs at 4° C. without organic solvents
Protocol: The protein encapsulation efficiency and the loading content were determined by separation of unloaded proteins from TNPs using Amicon Ultra centrifugal filters (MWCO 100 kDa). Unloaded proteins were measured using a protein ELISA kit and Synergy HT multi-mode microplate reader (BioTek Instruments Inc., Winooski, Vt., USA) at […] absorbance.

[3] = system: intracellular ROS in LPS-stimulated RAW 264.7 macrophage cells; test: Inhibition of intracellular ROS in LPS-stimulated macrophages (DCFH2-DA); assay type: cell-based
Protocol: To analyze the inhibitory effect of IL-10 on intracellular reactive oxygen species (ROS) generated from lipopolysaccharide (LPS)-stimulated macrophage cells, RAW 264.7 macrophage cells were seeded on a 24-well tissue culture plate at a density of 2×10^4 cells per well and then allowed to grow for 12 h. The cells were pre-treated with IL-10 at various concentrations (1 to 100 ng/mL) for 2 h and 24 h at 37° C. Then the medium was replaced with LPS solution (100 ng/mL), and the cells were further incubated for 4 h and 24 h at 37° C. The cells were then washed with PBS and incubated with 10 μM ROS detection reagent (DCFH2-DA) for 90 min at 37° C. Fluorescence intensity was measured using a Synergy HT multi-mode microplate reader with ex/em 485/528 nm filter (BioTek Instruments Inc).
In order to determine the bioactive integrity of IL-10 released from or loaded into TNPs, cells seeded on a 24-well tissue culture plate (2×10^4 cells/well) were pre-treated with native IL-10, IL-10 released from TNPs (obtained at 48 h post-release), or IL-10-loaded TNPs at 50 ng/mL concentration for 24 h at 37° C. Next, the medium was replaced with LPS solution (100 ng/mL), and the cells were stimulated with LPS for 24 h at 37° C. After washing with PBS, intracellular ROS was measured using the detection method mentioned above. […]

[4] = mouse, in vivo, iv
Protocol: At 5 min, 30 min, 1 h, 2 h, 4 h, 8 h, 12 h, and 24 h post-injection, blood samples (0.5 mL) were drawn for serum protein concentration analysis. Next, the blood samples were placed at 4° C. overnight to allow the formation of a blood clot and centrifuged under 2,000×g for 15 min at 4° C. The serum samples were stored at −80° C. and analyzed using an ELISA kit. […] The AUC (area under the serum concentration-time curve) and AUMC (area under the first moment curve) were calculated using the trapezoidal rule.

[5] = system: sIL-1Ra gene expression; test: qPCR of sIL-1Ra in LPS-stimulated macrophage cells; assay type: cell-based; settings: LPS 500 ng/mL 4 h, then IL-10 20 ng/mL 2 h
Protocol: (§1) Macrophage cells were seeded on a 6-well tissue culture plate (5×10^5 cells/well) and maintained for 12 h. The cells were treated with LPS (500 ng/mL) for 4 h, the medium was replaced with IL-10 solution (native IL-10 or released IL-10 at 20 ng/mL), and the cells were incubated for 2 h at 37° C. Next, the cells were washed with PBS and harvested by scraping, followed by centrifugation at 2,000 rpm for 5 min at 4° C. The isolated cell pellets were used to prepare the total RNA using the RNeasy® Mini Kit (QIAGEN, Valencia, Calif., USA) according to the manufacturer's protocol. For the preparation of cDNA, the extracted RNA solution (1 μg/5 μL) was then mixed with 0.5 μL of Oligo (dT) 15 primer (Promega, Madison, Wis., USA) and then reacted at 70° C. for 5 min using the Bio-Rad iCycler PCR Thermal Cycler (Bio-Rad Laboratories, Inc., Hercules, Calif., USA). The mixture was subsequently placed on ice for 5 min and mixed with various components to a final volume of 20 μL: nuclease-free water (5.6 μL), 10 mM dNTP mixture (Promega, 1 μL), 25 mM MgCl2 (Promega, 2.4 μL), ImProm-II™ reverse transcriptase (Promega, 1 μL), ImProm-II™ 5× reaction buffer (Promega, 4 μL), and RNasin® Plus RNase inhibitor (Promega, 0.5 μL). […] The relative gene expression levels were calculated using the ΔΔCt method and normalized to the expression of the reference gene (β-Actin). […]

[6] = system: STAT3 and phosphorylated STAT3 (P-STAT3 at Tyr705); test: Western blot of STAT3 and P-STAT3 in unstimulated macrophage cells; assay type: cell-based; settings: 20 ng/mL, 24 h; for Total levels of STAT3: β-Actin reference
Protocol: To determine the bioactivity of IL-10 in unstimulated cells, macrophage cells seeded on a 6-well tissue culture plate (5×10^5 cells/well) were treated with IL-10 (native IL-10 or released IL-10 at 20 ng/mL) and incubated for 24 h at 37° C. Then the cells were washed with ice-cold PBS three times and harvested by scraping into Eppendorf tubes, followed by centrifugation at 12,000 rpm for 5 min at 4° C. For protein extraction, the cells were lysed in 200 μL of protein extraction reagent (Fisher Scientific, Pittsburgh, Pa., USA) supplemented with protease inhibitor cocktail and phosphatase inhibitor cocktail (Sigma-Aldrich), and then centrifuged at 12,000 rpm for 10 min at 4° C. to remove the nuclei. Next, protein concentration was measured using a Coomassie Plus-Bradford™ assay with bovine serum albumin as the protein standard. The cell lysates (with 30 μg of protein) were mixed with 4× Laemmli Sample Buffer (Bio-Rad), and the mixture was boiled for 7 min at 95° C. […] Then the membranes were blocked with Tris-Buffered Saline-0.1% Tween 20 (TBST) solution containing 5% BSA for 2 h at 4° C. on a shaker. The primary antibodies (1:1000 dilutions) in TBST with 3% BSA were incubated with the membranes overnight at 4° C. on a shaker. After that, the membranes were washed with TBST solution four times (each 10 min) and then incubated with secondary antibody (1:10,000 dilutions) in TBST with 3% BSA for 1 h at room temperature on a shaker. Finally, the membranes were washed with TBST solution five times and visualized using Amersham ECL prime western blotting detection reagent (GE Healthcare Life Sciences, Pittsburgh, Pa., USA). The primary and secondary antibodies used in this study were from Cell Signaling Technology (Danvers, Mass., USA) as follows: β-Actin (8H10D10) Mouse mAb, Stat3 (124H6) Mouse mAb, and Phospho-Stat3 (Tyr705) (3E2) Mouse mAb as a primary antibody, and anti-mouse IgG (HRP-linked) antibody as a secondary antibody.

[7] = system: DNFB-induced allergic contact dermatitis; test: DNFB-induced allergic contact dermatitis (ACD) model; assay type: in vivo, C57BL/6 mice; settings: 100 μg IL-10/kg i.v. 2 h before DNFB, ear thickness at 36 h
Protocol: C57BL/6 mice were administered i.v. saline, TNPs, IL-10, or IL-10-loaded TNPs (100 μg IL-10/kg). At 2 h post-injection, a 0.3% v/v solution of DNFB (2,4-dinitro-fluorobenzene) in acetone was applied the mice to the dorsal and ventral aspects of ear skin. Ear thickness was measured using an engineer's micrometer (Mitutoyo) at 36 h. The change of ear thickness is calculated as the difference between the treated ear and the contralateral ear treated with acetone alone.
Ears were fixed in a 10% formalin solution, embedded in paraffin, and submitted for histological analysis by haematoxilin and eosin staining to the Harvard Rodent Histopathology Core.
For ear-skin digestion, the dorsal and ventral aspects of the ear were mechanically separated before mincing and placing into a digestion mix consisting of DMEM (Gibco) supplemented with HEPES (Invitrogen), 2% FCS, 200 μg/mL Liberase TM (Roche), 10 μg/mL DNase I (Roche), and 5 mg/mL Collagenase D (Roche). Ears were digested for 80 minutes at 37° C. in gentleMACS tubes (Miltenyi) with gentle agitation in freshly prepared digestion mix. After enzymatic digestion, the mixture was processed using a gentleMACS homogenizer (Miltenyi) in order to obtain a cell suspension, which was then filtered through a 70 μm cell strainer (BD). Cells were then resuspended in FACS buffer for analysis. […]

[8] = system: TNF-α and IL-12 gene expression; test: qPCR of proinflammatory cytokines in LPS-stimulated macrophage cells; assay type: cell-based; settings: LPS 500 ng/mL 4 h, then IL-10 20 ng/mL 2 h
Protocol: as §1

Molecule | Release profile from TNPs [1] | Encapsulation efficiency [2] [%] | Loading content [2] [wt %] | Inhibitory effect on ROS production, dose response ([3]; IL-10 1-100 ng/mL, LPS 100 ng/mL, pre-treatment) | Clearance [4] [mL/min/kg] | Improvement of half-life versus IL-10 alone [4] [fold] | T1/2 terminal [4] [min] | Vss [4] [L/kg] | Increase of sIL-1Ra mRNA expression compared to LPS alone [5] | P-STAT3 (Tyr705) level [6] | Total levels of STAT3 [6] | Ear swelling [7] | Inhibitory effect on ROS production, pre-treatment (IL-10→LPS) ([3]; 50 ng/mL IL-10 24 h, then 100 ng/mL LPS 24 h) | Reduction of TNF-α and IL-12 expression [8]
lysozyme: lysozyme from chicken egg whites, model protein loaded into TNPs (1:20) | controlled-release kinetics up to a week | 90 | 1.8 |  |  |  |  |  |  |  |  |  |  | 
B1 |  |  |  | dose-dependent inhibition effect | 32.9928 | 5.9 | 15 | 0.70727 | 1.5 fold | clear band | slightly increased | reduction of ear swelling compared to the saline-treated control |  | 
B2 |  |  |  |  |  |  |  |  | effects identical to those of the native protein | almost identical | almost identical |  | almost no statistical difference between the released IL-10 and native IL-10 | ca. 2.5 fold
